Data taken from patent US20130316374A1, “BREAST CANCER DIAGNOSTICS” (IMBA - INSTITUT FUR MOLEKULARE BIOTECHNOLOGIE GMBH, priority 2010, published 2013).
Entries after “also recorded” stand apart in the source; their conditions may differ.

Columns and labels:
[1] = tested on: RANKL; experiment: RANKL expression in purified mammary epithelial cells (qRT-PCR, Western blot); format: in vivo, mouse; conditions: nulliparous wild type females, 3 days after implantation/oral gavage
Experimental: a,b, MPA induces RANKL expression in mammary epithelial cells. Nulliparous wild type females were treated with oral gavage of DMBA or oil vehicle, s.c. implanted with slow-release MPA pellets, or treated with sham surgery. a, RANKL mRNA was determined in purified mammary epithelial cells by qRT-PCR 3 days after implantation/oral gavage. Data are shown as fold change compared to sham treatment+/−sem. n=3 mice per group. b, Expression of soluble (s) RANKL protein (19 kDa) was assayed on cell lysates from purified mammary epithelial cells by Western blot 3 days after treatment with oil vehicle, DMBA, MPA, or sham surgery. β-actin is shown as a loading control. […] Data are shown as percentage of tumor-free mice after the last DMBA challenge. No significant difference was found between the Cre+ and the Cre− control groups. Median tumor onset for Cre^+ controls was 9 days, for Cre^− controls 11 days, and for RANK^Δmam females 30 days after the last DMBA treatment. d, Representative Southern blot of MPA/DMBA-induced mammary tumors derived from RANK^flox/+; MMTV-Cre+ and RANK^flox/Δ; MMTV-Cre+ (RANK^Δmam) females. […]
Total RNA of tumors was prepared using the RNeasy Mini Kit (Qiagen), according to the manufacturer's instructions. Total RNA (2 μg) was subjected to quantitative (q)RT-PCR analysis. […]

[2] = tested on: human SKBR3 breast cancer cells; experiment: Soft-Agar Colony Formation Assay; format: cell-based; conditions: RANKL (1 μg/ml), 18 days in culture
Experimental: (§1) a, Western blotting for phosphorylated (P) IKKα, total IKKα, phosphorylated (P) p65 NFκB, total p65 NFκB, phosphorylated (P) IκBα, and total IκBα in isolated primary mouse mammary gland epithelial cells (MECs) in response to RANKL stimulation (1 μg/ml). […] is shown as loading control. b, Western blotting for IKKα, IKKβ, IKKγ, phosphorylated (P) p65 NFκB, total p65 NFκB, phosphorylated (P) IκBα, and total IκBα in pooled late stage mammary adenocarconimas (n=4 for each lane) that developed in control, RANK^Δmam, and IKKα^Δmam females. β-actin is shown as loading control c, Expression of RANK, CyclinD1, and p21 mRNA in late stage mammary adenocacinomas that developed in control, RANK^Δmam, and IKKα^Δmam females. Expression was determined by qRT-PCR. Data are mean values+/−sem. n=4 per group. d, Soft-Agar Colony Formation Assay. Growth of human SKBR3 breast cancer cells in soft agar in response to stimulation with RANKL (1 μg/ml) or EGF (100 ng/ml). […] Apoptosis was detected by immunostaining for active Caspase 3. f, Apoptotic nuclei of epithelial cells (arrows) are shown for representative mammary gland sections. Magnifications ×40. g, Quantification of mammary epithelial apoptosis. A minimum of 5000 nuclei was counted for each mouse. […]

[3] = tested on: primary mouse mammary gland epithelial cells (MECs); experiment: Western blotting of RANKL/RANK downstream signaling in MECs; format: cell-based; conditions: RANKL stimulation (1 μg/ml)
Experimental: as §1

[4] = tested on: human SKBR3 breast cancer cells; experiment: Western blotting of RANKL/RANK downstream signaling in SKBR3 cells; format: cell-based; conditions: RANKL stimulation (1 μg/ml)
Experimental: a, Western blotting for phosphorylated (P) p65 NFκB, total p65 NFκB, phosphorylated (P) IκBα, total IκBα, phosphorylated (P) ERK1/2, total ERK1/2, phosphorylated (P) p38-MAPK, and p38-MAPK in human SKBR3 breast cancer cells in response to RANKL stimulation (1 μg/ml). Data are representative of 3 experiments. b, Growth curve of SKBR3 breast cancer cells cultured in normal growth medium (control, DMEM supplemented with 10% FCS) or in the presence of RANKL (1 μg/ml). Cell numbers were determined by counting live cells (trypan blue-exclusion) over 3 days. c, Onset of palpable mammary tumors in NFATc1^Δmam (n=10) and age matched littermate control (n=16) females treated with MPA pellets and DMBA. Data are shown as percentage of tumor free mice after the last DMBA challenge. No significant difference was found. d, Quantification of NFATc1 mRNA expression in purified mammary epithelial cells (MECs) and MPA-driven mammary tumors from NFATc1^Δmam and littermate control females. mRNA was determined by qRT-PCR. Data are shown as fold change compared to control (+/−sem). n=5 Per group. *P<0.05 (Student's t-test).
The human epithelial breast tumor cell line SKBR3 and primary non-transformed mouse mammary epithelial cells were left untreated or stimulated with recombinant murine RANKL^ref. 9. Adenocarcinomas were isolated from control and mutant mice and total protein lysates prepared. […]

`CC(=O)O[C@]1(C(C)=O)CC[C@H]2[C@@H]3C[C@H](C)C4=CC(=O)CC[C@]4(C)[C@H]3CC[C@@]21C` [MPA, medroxyprogesterone acetate] was tested, and the “RANKL mRNA and protein expression in mammary epithelial cells” value [1] was “induced RANKL mRNA and protein expression”.

B1: RANKL: Receptor Activator of NF-κB Ligand; recombinant murine RANKL used for stimulation (protein, UniProt O35235 139-316, looked up)
Tumor necrosis factor ligand …: FSGAPAMMEGSWLDVAQRGKPEAQPFAHLTINAASIPSGSHKVTLSSWYHDRGWAKISNMTLSNGKLRVNQDGFYYLYANICFRHHETSGSVPTDYLQLMVYVVKTSIKIPSSHNLMKGGSTKNWSGNSEFHFYSINVGGFFKLRAGEEISIQVSNPSLLDPDQDATYFGAFKVQDID
For B1, the “anchorage-independent growth in soft agar” value [2] was “induced growth of SKBR3 cells in soft agar; also recorded: macroscopic colonies formed”, the “p65 NFκB and IκBα phosphorylation” value [3] was “resulted in p65 NFκB and IκBα phosphorylation” and the “phosphorylation of p38-MAPKs and ERK” value [3] was “triggered phosphorylation of p38-MAPKs and ERK”. The “NFκB, p38-MAPKs and ERK activation” value [4] was “induced NFκB, p38-MAPKs and ERK activation”.
